Measured values published in patent publication US20080193435A1, “Revascularization of Ischemic Retinal Tissue and Screening Method Therefor” (priority 2005, published 2008).
Entries after “also recorded” stand apart in the source; their conditions may differ.

How the values were obtained:
mouse OIR model = assay: Mouse oxygen-induced retinopathy (OIR) model, whole-mount retina quantification of vascular obliteration and neovascular tuft areas; assay type: in vivo; design: vascular morphology of the retina / neovascular tuft areas compared to VEGF aptamer treated retinas: dose or concentration left out as unconfirmed; conditions: for effect on area of neovascular tuft formation: single intravitreal injection at P12, various doses; for effect on physiological revascularization of the retina: vs PBS control
Description: All animal work adhered to strict protocol guidelines for the humane care and use of animals in research. OIR was induced according to the protocol described by Smith et al. Invest. Opthalmol. Vis. Sci., 1994; 35:101-111. Seven-day old mouse pups and their mothers were transferred from room air to a hyperoxic environment of about 75% oxygen for 5 days, and afterwards returned to room air (normoxia). Exposure to hyperoxic conditions was performed by putting the animal cages within a modified human infant incubator. Oxygen was circulated through the incubator (using an animal anesthesia machine to control flow) and levels were monitored and maintained at 74-75% using an FDA-approved oxygen analyzer (AX-300, Teledyne Analytical Instruments, CA, USA). During the 5 days of hyperoxia, the animals were examined at least three times daily. Unlimited food and water were available to the mothers throughout the experiment. After 5 days, i.e., at postnatal Day 12 (P12), cages were returned to room air.
After the mice were euthanized, enucleated eyes were fixed in 4% paraformaldehyde in PBS for about 10 minutes, and the retinas were dissected by making a circular cut behind the limbus, approximately at the iris root, and then removing the anterior part of the eye. The lens and vitreous were dissected out, and the retina was separated from the scleral and choroidal layers leaving the retina in an eye-cup configuration. Radial relaxing-incisions were made in the retina to allow it to flatten and any remnants of the vitreous or hyaloid were carefully removed from the flattened retina.
For FITC-dextran angiography, animals were anaesthetized by intraperitoneal injections of Ketamine HCl (Ketalar, Parke Davis, UK, 100 mg/kg) in combination with the relaxing agent Xylazine (2 mg/kg). Approximately 300 μl of high molecular weight (2×106 Da) FITC-Dextran (concentration 50 mg/ml, Sigma, St. Louis, Mo.) were injected into the left ventricle and allowed to circulate for approximately two minutes before euthanizing the animal and enucleating the eyes. For isolectin G4 staining, retinas were post-fixed in 4% paraformaldehyde for about 45 minutes, and incubated at room temperature overnight with isolectin GS-IB4 from Griffonia simplicifolia (isolectin GS) that was conjugated to Alexa Fluor 59 4 (Molecular Probes, 1:150 dilution in phosphate buffered saline (PBS)) to afford “isolectin GS-594”. Following 4-5 washes with PBS over a 2 hour span, retinas were mounted as whole-mount preparations on slides with SLOW FADE (Molecular Probes) for subsequent imaging.
Micrographic images were taken using a 4× objective lens with a detector resolution of 512×512 pixels. Extra care was taken to focus just above the inner limiting membrane of the retina using confocal microscopy (BioRad) so that the pre-laminar neovascular tufts became more prominent than the underlying superficial vascular plexus making subsequent quantification of the neovascular tuft areas easier. In most cases, four overlapping images (each representing one retinal quadrant) were acquired from each retina. Using Adobe PHOTOSHOP® 6.0, montages were then created using retinal landmarks such as the optic disc and major vessels to align the images. These montages allowed visualization and quantification of the entire retina. In a few cases where both the obliterated areas and all areas of neovascularization were located toward the center of the retina, single 4× images centered on the optic disk were acquired. While the peripheral retina is not included in its entirety in such images, the relevant OIR-induced changes can be fully seen in these cases. Each individual image was converted to a 2×2 inch size with 300 pixels per inch resolution prior to creating the montage and quantifying the obliteration and neovascular tuft areas. […]

angiogenesis = conditions: previously found; cited from earlier work
[1] = single intravitreal injection at P12, read at P17

Molecule | effect on area of neovascular tuft formation (mouse OIR model; read at P17) | effect on physiological revascularization of the retina (mouse OIR model; [1]) | angiostatic activity in other models of angiogenesis (angiogenesis) | reduction of tuft formation (mouse OIR model; P19, after two injections (P13 and P16) of lower doses, VEGF aptamer 0.5 mg/eye/injection, 53.9 picomoles) | neovascular tuft areas compared to VEGF aptamer treated retinas (mouse OIR model; T2-TrpRS, intravitreal, molar concentration 10-fold below the aptamer) | inhibition of neovascular tuft formation (mouse OIR model; about 1.25 μg/eye, intravitreal) | vascular morphology of the retina (mouse OIR model; intravitreal at P12, P17) | obliterated areas compared to control retinas (mouse OIR model; intravitreal injection, areas of obliteration equivalent at time of injection) | reduction of obliterated areas at P17 compared to PBS control-injected retinas (mouse OIR model; [1])
FL-TrpRS: full-length tryptophan tRNA synthetase (protein, UniProt P23381 1-471, looked up, full-length, full-length tryptophan tRNA synthetase) MPNSEPASLLELFNSIATQGELVRSLKAGNASKDEIDSAVKMLVSLKMSYKAAAGEDYKADCPPGNPAPTSNHGPDATEAEEDFVDPWTVQTSSAKGIDYDKLIVRFGSSKIDKELINRIERATGQRPHHFLRRGIFFSHRDMNQVLDAYENKKPFYLYTGRGPSSEAMHVGHLIPFIFTKWLQDVFNVPLVIQMTDDEKYLWKDLTLDQAYSYAVENAKDIIACGFDINKTFIFSDLDYMGMSSGFYKNVVKIQKHVTFNQVKGIFGFTDSDCIGKISFPAIQAAPSFSNSFPQIFRDRTDIQCLIPCAIDQDPYFRMTRDVAPRIGYPKPALLHSTFFPALQGAQTKMSASDPNSSIFLTDTAKQIKTKVNKHAFSGGRDTIEEHRQFGGNCDVDVSFMYLTFFLEDDDKLEQIRKDYTSGAMLTGELKKALIEVLQPLIAEHQARRKEVTDEIVKEFMTPRKLSFDFQ | some activity at the highest dose | significant enhancement of the revascularization process but only at the higher doses | no angiostatic activity |  |  |  |  |  | 
T2-TrpRS: proteolytic fragment of tryptophan tRNA synthetase (TrpRS); SEQ ID NO: 1 (protein, listed as Homo sapiens) SAKGIDYDKLIVRFGSSKIDKELINRIERATGQRPHHFLRRGIFFSHRDMNQVLDAYENKKPFYLYTGRGPSSEAMHVGHLIPFIFTKWLQDVFNVPLVIQMTDDEKYLWKDLTLDQAYSYAVENAKDIIACGFDINKTFIFSDLDYMGMSSGFYKNVVKIQKHVTFNQVKGIFGFTDSDCIGKISFPAIQAAPSFSNSFPQIFRDRTDIQCLIPCAIDQDPYFRMTRDVAPRIGYPKPALLHSTFFPALQGAQTKMSASDPNSSIFLTDTAKQIKTKVNKHAFSGGRDTIEEHRQFGGNCDVDVSFMYLTFFLEDDDKLEQIRKDYTSGAMLTGELKKALIEVLQPLIAEHQARRKEVTDEIVKEFMTPRKLSFDFQ | markedly reduced the area of neovascular tuft formation at P17 in a dose-dependent matter; also recorded: potent inhibitors of neovascular tuft formation; also recorded: strong, dose-dependent angiostatic effect | significantly enhanced revascularization, even at lower doses | potent angiostatic potential | over 75% | slight, but significant reduction | nearly complete inhibition | looked nearly normal | reduced by half | around 40%
